Test system: Human dermal fibroblasts
Test: Fibroblast cell survival after UVB exposure (MTT assay)
Type: cell-based
Details: UVB approximately 50 mj/cm^2, treated after exposure, MTT 48 hours later
Description: Construction, analysis and verification of the SELP47K-P4 (SEQ. ID. NO. 36) conjugate proceeded as follows. SELP constructs in which all polymer subunits contain additional P4 (ALSYP) peptide sequences were made as follows: Artificial gene synthesis was used to create a 2 subunit version of the desired construct in which each identical subunit contains a unique non-palindromic restriction site. Specifically, SELP subunits contained either BBI derived P4 sequences (Seq ALSYP) incorporated in two places per subunit, flanking the silk region, incorporated between the C-terminal end of the silk region and the N-terminal end of the elastin region. A BsgI restriction enzyme cleavage site was designed within each subunit. Gene construction was carried out by Blue Heron Biotechnology (Bothell, Wash.). […] Resulting modified SELP monomers as well as plasmid vector were purified from agarose gels and concentrated using a Spin Vac. Monomers were self ligated using T4 DNA ligase (New England Biolabs) as per manufacturer's instructions overnight at 16 C. Original purified vector was added to ligation mix with additional fresh ligase and incubated at 16 C for an additional 24 hrs. Ligation mix was used to transform E. coli TOP10 cells (Invitrogen) as per manufacturer's instructions. Resulting transformants were used to inoculate culture tubes containing 5 ml Luria broth and appropriate antibiotic. […]

B1: SELP47K-P4 (protein)
chain: MDPVVLQRRDWENPGVTQLNRLAAHPPFASDPMGAGAGSGAGAGSALSYPGVGVPGVGVPGVGVPGVGVPGKGVPGVGVPGVGVPGVGVPALSYPGAGAGSGAGAGSGAGAGSGAGAGSALSYPGVGVPGVGVPGVGVPGVGVPGKGVPGVGVPGVGVPGVGVPALSYPGAGAGSGAGAGSGAGAGSGAGAGSALSYPGVGVPGVGVPGVGVPGVGVPGKGVPGVGVPGVGVPGVGVPALSYPGAGAGSGAGAGSGAGAGSGAGAGSALSYPGVGVPGVGVPGVGVPGVGVPGKGVPGVGVPGVGVPGVGVPALSYPGAGAGSGAGAGSGAGAGSGAGAGSALSYPGVGVPGVGVPGVGVPGVGVPGKGVPGVGVPGVGVPGVGVPALSYPGAGAGSGAGAGSGAGAGSGAGAGSALSYPGVGVPGVGVPGVGVPGVGVPGKGVPGVGVPGVGVPGVGVPALSYPGAGAGSGAGAGSGAGAGSGAGAGSALSYPGVGVPGVGVPGVGVPGVGVPGKGVPGVGVPGVGVPGVGVPALSYPGAGAGSGAGAGSGAGAGSGAGAGSALSYPGVGVPGVGVPGVGVPGVGVPGKGVPGVGVPGVGVPGVGVPALSYPGAGAGSGAGAGSGAGAGSGAGAGSALSYPGVGVPGVGVPGVGVPGVGVPGKGVPGVGVPGVGVPGVGVPALSYPGAGAGSGAGAGSGAGAGSGAGAGSALSYPGVGVPGVGVPGVGVPGVGVPGKGVPGVGVPGVGVPGVGVPALSYPGAGAGSGAGAGSGAGAGSGAGAGSALSYPGVGVPGVGVPGVGVPGVGVPGKGVPGVGVPGVGVPGVGVPALSYPGAGAGSGAGAGSGAGAGSGAGAGSALSYPGVGVPGVGVPGVGVPGVGVPGKGVPGVGVPGVGVPGVGVPALSYPGAGAGSGAGAGSGAGAGSGAGAGSALSYPGVGVPGVGVPGVGVPGVGVPGKGVPGVGVPGVGVPGVGVPALSYPGAGAGSGAGAGSGAGAMDPGRYQDLRSHHHHHH
modifications: P4-SELP47K silk, elastin ad UV-protective peptides
Question: How did the “viability improvement of UV treated human fibroblast cells” value turn out when B1 was run?
Answer: Its value is 100%.

Reference: patent US7691806B2, “Repeat sequence protein polymer active agent congjugates, methods and uses” (priority 2003, dated 2010)
